Results on four molecules are retold here after patent US20210332111A1 (WASHINGTON UNIVERSITY, published 2021).

Several values for one entry are separate records, joined by “and”; a condition that tells them apart may be missing. Equal entries are not always repeated. Where two headings read alike, the source gives them in different places. Some results are limits rather than exact numbers.

Test [1] has as its target T1, recombinant ZIKV DIII (domain III of the E protein, strain H/PF/2013, residues 299 to 407) (Zika virus, strain H/PF/2013, UniProt A0A024B7W1 591-694). As to the kind of experiment: BLI, equilibrium.
Test [2] deals with T2, ZIKV quad-fusion-loop variant of the E ectodomain (ZIKV E-FL) (Zika virus, strain H/PF/2013).
T2 construct: Variant of m8
Nature of the test: direct ELISA, antigen coated at 2 µg/ml, mAb at 0.5 µg/ml, OD 450 nm. For orientation: In an ELISA, binding on a coated surface is turned into a signal by an enzyme label.

For test [3], the target named is T3, recombinant soluble ZIKV E protein ectodomain (strain H/PF/2013) (Zika virus, strain H/PF/2013).
T3 construct: also called ZIKV E ectodomain; monomeric form of the ectodomain of E
The description is as above.

Test [4] addresses T1, recombinant ZIKV DIII (domain III of …). Nature of the test: BLI; half-life calculated from the dissociation constant, kd kinetic.
In test [5] the target is ZIKV strain H/PF/2013 (French Polynesia, 2013), infectious virus (Zika virus, strain H/PF/2013). As to the kind of experiment: cell-based or functional assay.
Test [6] addresses T4, recombinant WNV E ectodomain (strain New York 1999) (West Nile virus, strain New York 1999, UniProt Q9Q6P4 291-694).
T4 construct: range 291-694
T4 sequence: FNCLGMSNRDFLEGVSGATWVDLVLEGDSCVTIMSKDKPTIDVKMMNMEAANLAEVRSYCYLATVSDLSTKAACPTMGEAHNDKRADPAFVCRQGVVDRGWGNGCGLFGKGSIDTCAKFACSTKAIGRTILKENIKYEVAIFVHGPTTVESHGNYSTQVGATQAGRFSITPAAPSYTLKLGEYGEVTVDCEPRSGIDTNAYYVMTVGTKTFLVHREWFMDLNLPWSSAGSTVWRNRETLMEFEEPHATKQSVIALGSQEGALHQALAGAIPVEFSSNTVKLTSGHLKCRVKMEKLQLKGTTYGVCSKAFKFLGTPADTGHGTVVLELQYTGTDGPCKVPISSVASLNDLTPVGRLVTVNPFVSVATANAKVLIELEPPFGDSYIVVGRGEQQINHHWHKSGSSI
Nature of the test: ELISA on plate-adsorbed WNV E.

Test [7] addresses T1, recombinant ZIKV DIII (domain III of …). As to the kind of experiment: BLI, biotinylated mAb on streptavidin sensor, DIII in solution; KD (equilibrium).
Another test concerns the target T5, DENV4 E.
T5 construct: also called DV4-E; recombinant DENV-4 E ectodomain
As to the kind of experiment: direct ELISA, antigen coated at 2 µg/ml, OD 450 nm.

A further test addresses T6, ZIKV.
T6 construct: also called ZIKV H/PF/2013-infected Vero cells
Nature of the test: flow cytometry, infected cells fixed and permeabilized, mAb at 10 µg/ml, Alexa Fluor 647 anti-mouse IgG. (In flow cytometry, cells or beads pass a laser one at a time.)

Test [8] addresses T1, recombinant ZIKV DIII (domain III of …).
Test [9] shares this target. This is another data set of the same source.
The target in test [10] is ZIKV subviral particles (SVPs, prM-E of strain H/PF/2013) (Zika virus, strain H/PF/2013).
Test [11] deals with T1, recombinant ZIKV DIII (domain III of …). The source holds these as a separate data set.

B1: ZV-48 monoclonal antibody (antibody, V domains shown)
VH: QVQLQQPGAELLKPGASVKLSCKASGYSFSNYWMHWVKQRPGQGPEWIGMIHPNSGNTKYNEKFKNKATLTVDKSSSMVYMQLSSLTSEDSAVFYCARLGNDMDYWGQGTSVTVSS
VL: DIVMSQSPSSLAVSVGEKITMSCKSSQSLLYSNNEKNYLAWYQQKPGQSPKLLIYWASARDSGVPDRFTGSGSGTDFTLTISSVKAEDLAVFYCQQYYSYPYTFGGGTKLEIK
notes: also called ZIKV-48
As a reminder, the Kd is the concentration at which binding is half-saturated. Usually koff stands for a measure of how fast the partners let go of each other. For orientation: kon means a measure of how fast the partners come together. Regarding B1, the dissociation constant (Kd) in test [1] is roughly 35 nM; in test [7], 35 nM; in test [8] it was 26.8 nM and 35.2 nM. In addition, the binding result in test [2] was “binds”; in test [3], “binds”; in test [6], “no binding (tested: 0.5 µg/ml)”; with DENV4 E, “no binding (tested: 0.5 µg/ml)”; with ZIKV, “binds”. The “t1/2” value in [4] is 3.2 min. The “% Neutralization (undiluted sups), focus reduction on Vero cells” value in test [5] stood at 100%. For the same molecule, the koff in test [8] was determined as 0.0038 s⁻¹. For the same molecule, the on-rate (kon) in test [8] was found to be 148000 M⁻¹ s⁻¹.

B2: ZV-2 monoclonal antibody (antibody, V domains shown)
VH: QVQLQESGAELMKPGASVKLSCKTSGYTFIGYWIEWLKQRPGHGLEWVGEIFPGSGRTKYNEKFKGRATFTADTSSNMAYMQLSSLTTEDSAIYYCARYYYGSYYALDYWGQGTSVTVSS
VL: DIVMTQSPSSLSVSAGEKVTLSCKSSQSLLHSGNQKNYLAWYQQKPGQAPKLLIYGASTRESGVPDRFTGSGSGTDFTLTISSVQAEDLAVYYCQNDHSYPLTFGAGTKLELK
notes: also called ZIKV-2
For the molecule B2, the dissociation constant Kd is greater than 250 nM in [1]; 266 nM in test [7]; 121 nM and 295 nM in test [8]. The binding result in test [2] is “binds”; in test [6] it was “no binding (tested: 0.5 µg/ml)”; with DENV4 E, “no binding (tested: 0.5 µg/ml)”. In test [4], the “t1/2” value is 0.3 min. Further, in test [5], the “% Neutralization (undiluted sups), focus reduction on Vero cells” value is less than 30%.

B3: ZV-54 monoclonal antibody (antibody, V domains shown)
VH: QVQLQQSGVGLARPGTSVKLSCKASGYSFTTYGISWVTQRPGQGLEWIGVIYPRSNNTYYNERFRGKATLTADKSSSSAYLELRGLTAEDSAVYFCARENYGSVYWGQGTTLTVSS
VL: DIVMTQSQKFMSTSVGDRVTITCKASQSVGTAVAWYHQKPGQSPKLLIYSASNRYTGVPDRFTGSGSGTDFTLTITYMQSEDLADYFCQQFSNYPFTFGGGTKLEIK
notes: also called ZIKV-54
On to B3, for which the figures for the Kd in test [1] and in [7] were less than 10 nM and 7.9 nM, respectively. Moreover, the binding result is on record as “binds” in test [2]; “binds” in test [3]; “no binding (tested: 0.5 µg/ml)” in [6]; “no binding (tested: 0.5 µg/ml)” with DENV4 E; “binds” with ZIKV. For the same molecule, the “t1/2” value in test [4] was 33 min. The “% Neutralization (undiluted sups), focus reduction on Vero cells” value in test [5] was 100%. For the same molecule, in [9], the off-rate (koff) turned out to be 0.000312 s⁻¹. Moreover, the on-rate constant (kon) in test [9] was 149000 M⁻¹ s⁻¹.

B4: ZV-67 monoclonal antibody (antibody, V domains shown)
VH: QAQLQQSGTGLARPGASVKLSCKASGYTFTSYGISWVTQRAGQGLEWIGVIYPRSGNTYYNEKFRGKATLTADKSSSSAYMELRGLTAEDSAVYFCARENYGSVYWGQGTTLTVSS
VL: DIVMTQSQKFMSTSVGDRVSITCKASQNVGTAVAWYQQKPGQSPKLLIYSASNRYTGVPDRFTGSGSGTDFTLTISNMQSEDLADYFCQQFSSYPYTFGGGTKLEIK
notes: also called ZIKV-67
As usually defined, the EC50 (read off the curve) is the concentration needed to bring the measured effect to its halfway point. In the case of B4, in [10], the “EC50 (read off the curve)” value is roughly 5 ng/mL. Moreover, the equilibrium dissociation constant (Kd) in test [1] was less than 10 nM; in test [11] it was 6.77 nM and 9.89 nM; in [7] it was 8.8 nM. The binding result in test [2] is “binds”; in test [3], “binds”; in test [6], “no binding (tested: 0.5 µg/ml)”; in the test with DENV4 E, “no binding (tested: 0.5 µg/ml)”; in the test with ZIKV, “binds”. For the same molecule, the “t1/2” value in test [4] was 13.8 min. In addition, the “% Neutralization (undiluted sups), focus reduction on Vero cells” value in [5] turned out to be 100%.
